Measurements from paper PMC3681970, “Biochemical Characterization of UDP-N-acetylmuramoyl-L-alanyl-D-glutamate: meso-2,6-diaminopimelate ligase (MurE) from Verrucomicrobium spinosum DSM 4136^T” (PLoS ONE, 2013).

Key:
Assay in all cases: radiometric HPLC ligase assay, Michaelis-Menten fit
Assay type in all cases: biochemical, Verrucomicrobium spinosum
[1] = substrate: Nc1ncnc2c1ncn2[C@@H]1O[C@H](COP(=O)(O)OP(=O)(O)OP(=O)(O)O)[C@@H](O)[C@H]1O; details: 100 mM Tris-HCl pH 9.6, 30 mM MgCl2, 37°C, other substrates fixed (standard 150 µM UDP-MurNAc-L-Ala-D-[14C]Glu, 150 µM meso-A2pm)
[2] = substrate: CC(=O)N[C@H]1[C@@H](OP(=O)(O)OP(=O)(O)OC[C@H]2O[C@@H](n3ccc(=O)[nH]c3=O)[C@H](O)[C@@H]2O)O[C@H](CO)[C@@H](O)[C@@H]1O[C@H](C)C(=O)N[C@@H](C)C(=O)N[C@H](CCC(=O)O)C(=O)O; details: 100 mM Tris-HCl pH 9.6, 30 mM MgCl2, 37°C, other substrates fixed (standard 5 mM ATP, 150 µM meso-A2pm), labelled compound (14C in D-Glu)
[3] = substrate: N[C@H](CCC[C@H](N)C(=O)O)C(=O)O; details: 100 mM Tris-HCl pH 9.6, 30 mM MgCl2, 37°C, other substrates fixed (standard 5 mM ATP, 150 µM UDP-MurNAc-L-Ala-D-[14C]Glu)

B1: MurEVs (Verrucomicrobium spinosum) (protein)
chain: MTILRDLIEGLDKPVISGGLDVEVAGLAYDSRLVKPGFVFFALRGVKSDGHDFIPKALAEGAVAIVAETAPPEDCSVTWLHVKNARVALAEMAAAYKGHPARSMAVGGVTGTNGKTTTAFLLHHLLNHAHRRCGLLGTVVYDVGGDLKPATHTTPESLELQGLLSEMRDRGCVAVAMEVSSHAIDQHRTHGVPFAAAVFTNLSQDHLDYHGTMEEYFKAKSKLFSSTAASRSGKLVINVDDIWGRRLVDAHKEHPGLVTYGLGVAADYRAVNPRYDLTGTSFELEHKGRSLLVRIPQIGQFNVYNSLAALAAAHGMGCNLRDTVKAMQSSPQIPGRMERVTPDNHSFHVFVDYAHTPDGLVNALSTARALRPERIITVFGCGGDRDRLKRPLMARAVEEHSDISILTSDNPRTEDPQAIMDDARKGFTRSAHALIADRKEAIHTAIKGAREGDIVVIAGKGHEPYQDVQGVKHPFDDRRVARQLVDIEIRIKGEKRLEARQRRDDRQ
- Km [1]: 290 ± 70 µM
- Km [2]: 24 ± 6 µM
- Km [3]: 17 ± 3 µM
